# In IntAct's records for PubMed 7538908:
# B1: Tumor necrosis factor receptor superfamily member 6 (Homo sapiens), P25445 (parent)
# chain: MLGIWTLLPLVLTSVARLSSKSVNAQVTDINSKGLELRKTVTTVETQNLEGLHHDGQFCHKPCPPGERKARDCTVNGDEPDCVPCQEGKEYTDKAHFSSKCRRCRLCDEGHGLEVEINCTRTQNTKCRCKPNFFCNSTVCEHCDPCTKCEHGIIKECTLTSNTKCKEEGSRSNLGWLCLLLLPIPLIVWVKRKEVQKTCRKHRKENQGSHESPTLNPETVAINLSDVDLSKYITTIAGVMTLSQVKGFVRKNGVNEAKIDEIKNDNVQDTAEQKVQLLRNWHQLHGKKEAYDTLIKDLKKANLCTLAEKIQTIILKDITSDSENSNFRNEIQSLV
# Variants of: B1
# Settings: with ripk1_human RIPK1, Q13546
# Sequence of ripk1_human RIPK1, Q13546 (Q13546 whole entry): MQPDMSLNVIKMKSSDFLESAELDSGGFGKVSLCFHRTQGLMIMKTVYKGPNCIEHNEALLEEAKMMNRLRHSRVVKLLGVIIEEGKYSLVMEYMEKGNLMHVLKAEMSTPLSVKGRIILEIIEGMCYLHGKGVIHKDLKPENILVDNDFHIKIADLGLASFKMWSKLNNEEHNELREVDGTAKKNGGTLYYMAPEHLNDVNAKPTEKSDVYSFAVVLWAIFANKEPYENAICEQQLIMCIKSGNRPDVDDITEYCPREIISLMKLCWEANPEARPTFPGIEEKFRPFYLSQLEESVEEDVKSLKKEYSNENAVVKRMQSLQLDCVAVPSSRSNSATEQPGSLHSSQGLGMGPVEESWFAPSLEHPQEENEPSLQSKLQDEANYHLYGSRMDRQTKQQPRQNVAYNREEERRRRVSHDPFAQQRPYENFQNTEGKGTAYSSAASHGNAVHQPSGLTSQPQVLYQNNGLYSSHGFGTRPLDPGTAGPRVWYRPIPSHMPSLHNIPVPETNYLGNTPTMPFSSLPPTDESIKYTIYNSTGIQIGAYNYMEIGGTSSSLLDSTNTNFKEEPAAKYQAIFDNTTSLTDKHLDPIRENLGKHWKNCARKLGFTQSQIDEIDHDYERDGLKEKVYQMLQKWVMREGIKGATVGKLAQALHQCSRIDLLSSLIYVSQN
row,effect of a mutation on the interaction,Variant
1,decreasing interaction,MLGIWTLLPLVLTSVARLSSKSVNAQVTDINSKGLELRKTVTTVETQNLEGLHHDGQFCHKPCPPGERKARDCTVNGDEPDCVPCQEGKEYTDKAHFSSKCRRCRLCDEGHGLEVEINCTRTQNTKCRCKPNFFCNSTVCEHCDPCTKCEHGIIKECTLTSNTKCKEEGSRSNLGWLCLLLLPIPLIVWVKRKEVQKTCRKHRKENQGSHESPTLNPETVAINLSDVDLSKYITTIAGVMTLSQVKGFVRKNGNNEAKIDEIKNDNVQDTAEQKVQLLRNWHQLHGKKEAYDTLIKDLKKANLCTLAEKIQTIILKDITSDSENSNFRNEIQSLV [V254N]
